{
  "source": "patent US20050176623A1",
  "about": "“Non-invasive treatment of disease using amphipathic compounds” (priority 2004, published 2005)",
  "origin": "cited, not measured here",
  "details": "fractional catabolic rate, kidney",
  "data": [
    {"substance": "apolipoprotein A-I [apoA-I]", "values": [
      {"measurement": "normal clearance of apoA-I", "value": "approximately 0.3 pools/day"}
    ]}
  ]
}
